According to patent US20250074980A1 (BRIGHAM AND WOMEN S HOSPITAL, published 2025):
Values belong to the binder of their own block, whether it stands above or below them.

Tests used:
[1] = biological target: T1, CEACAM3 on transfected HeLa cells (human, UniProt P40198 35-252); test: flow cytometry titration, HeLa-CEACAM3 transfectants, anti-human IgG4 FITC
T1 construct: whole, on cells; also called HeLa-CEACAM3; HeLa C3
T1 sequence (looked up): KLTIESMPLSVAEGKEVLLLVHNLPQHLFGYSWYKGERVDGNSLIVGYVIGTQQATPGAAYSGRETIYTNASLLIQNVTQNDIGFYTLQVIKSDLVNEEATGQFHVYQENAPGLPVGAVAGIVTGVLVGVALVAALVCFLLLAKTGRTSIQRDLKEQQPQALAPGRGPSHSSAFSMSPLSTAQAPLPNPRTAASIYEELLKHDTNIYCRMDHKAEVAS
Method: (§1) FIGS. 31A and 31B show flow cytometry analyses of stable HeLa CEACAM1 (HeLa C1) transfectant, stable HeLa CEACAM3 transfectant (HeLa C3), stable HeLa CEACAM5 transfectant (HeLa C5), stable HeLa CEACAM6 transfectant (HeLa C6), and stable HeLa CEACAM8 transfectant (HeLa C8). FIG. 31A: 5×10\hat{ }4 indicated HeLa transfectants were washed with staining buffer and CP08H03/Vκ8 S29A (labeled “CP08”, left) or CEACAM1 antibody CM-24 was incubated at room temperature for 30 min, washed twice with staining buffer, and stained for anti-human IgG4 Fluorescein isothiocyanate (FITC) conjugated secondary antibody at room temperature for 20 min. Fluorescence intensities were determined by flow cytometry. Live cells were determined by 4′,6-diamidino-2-phenylindole (DAPI) staining as shown on the y-axis. Staining with the respective CEACAM1 antibody is shown on the x-axis. […]
(§2) The cervical adenocarcinoma cell line HeLa (ATCC No CCL-2) as well as transfected cell lines HeLaCEACAM1, HeLaCEACAM3, HeLaCEACAM5, HeLaCEACAM6 and HeLaCEACAM8 used for flow cytometry experiments were cultured at 37° C., 5.0% CO₂ in Dulbecco's modified Eagle's medium supplemented with 10% fetal bovine serum, penicillin (100 U/ml) and dihydrostreptomycin (100 μg/ml). […] Data were acquired with a Cytoflex flow cytometer (Invitrogen) and analyzed with FlowJo software (TreeStar, V7.6.5 for Windows).

[2] = biological target: T2, CEACAM8 on transfected HeLa cells (human, UniProt P31997 35-320); test: flow cytometry titration, HeLa-CEACAM8 transfectants, anti-human IgG4 FITC
T2 construct: whole, on cells; also called HeLa-CEACAM8; HeLa C8
T2 sequence (looked up): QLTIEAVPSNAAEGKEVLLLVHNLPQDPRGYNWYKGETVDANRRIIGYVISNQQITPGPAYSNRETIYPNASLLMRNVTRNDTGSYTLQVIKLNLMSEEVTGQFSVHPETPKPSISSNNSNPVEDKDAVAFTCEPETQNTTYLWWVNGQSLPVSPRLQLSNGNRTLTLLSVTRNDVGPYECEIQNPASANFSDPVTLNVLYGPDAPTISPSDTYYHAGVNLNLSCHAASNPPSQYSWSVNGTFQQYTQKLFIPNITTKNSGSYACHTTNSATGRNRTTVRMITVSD
Method: as §1, §2

[3] = biological target: T1, CEACAM3 on transfected HeLa cells; test: flow cytometry, transfected HeLa
Procedure, shortened: (§3)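 Flow cytometry was done on HeLa cells stably expressing single CEACAM family members, cultured in DMEM with 10% fetal bovine serum at 37° C, 5.0% CO₂, and stained with the test antibody, then a fluorochrome-conjugated isotype-specific secondary antibody, with DAPI for viability. Staining of each transfectant serves as the readout of binding selectivity.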

[4] = biological target: T2, CEACAM8 on transfected HeLa cells; test: flow cytometry, transfected HeLa
Procedure, shortened: as §3

[5] = biological target: T3, CEACAM6 on transfected HeLa cells (human, UniProt P40199 35-320); test: flow cytometry, HeLa-CEACAM6 transfectants, % positive cells
T3 construct: whole, on cells; also called HeLa-CEACAM6; HeLa C6
T3 sequence (looked up): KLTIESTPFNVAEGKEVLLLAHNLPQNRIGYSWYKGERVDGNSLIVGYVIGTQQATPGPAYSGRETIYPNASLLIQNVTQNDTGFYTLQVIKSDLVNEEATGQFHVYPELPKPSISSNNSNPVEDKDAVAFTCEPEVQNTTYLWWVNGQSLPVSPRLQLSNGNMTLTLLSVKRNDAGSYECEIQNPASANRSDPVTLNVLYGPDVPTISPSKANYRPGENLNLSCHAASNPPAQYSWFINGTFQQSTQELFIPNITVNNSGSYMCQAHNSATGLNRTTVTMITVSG

- binding result [1]: no binding (tested: 100 ug/ml)
- binding result [2]: no binding (tested: 100 ug/ml)
B1: CP08H03/Vκ8 S29A (antibody, IgG4, V domains shown)
VH: EVQLLESGGGLVQPGGSLRLSCAASGFIFSSHGMSWVRQAPGKGLEWVATISSGGTYTYYPDSVKGRFTISRDNSKNTLYLQMNSLKAEDTAMYYCARHDFDYFPYWFAHWGQGTLVTVSS
VL: EIVLTQSPATLSLSPGERATLSCRANSAVSYMYWYQQKPGQAPRPWIYLTSNRATGVPARFSGSGSGTDYTLTISSLEPEDFAVYYCQQWSSNPPTFGQGTKLEIK
notes: IgG4 (S241P), kappa; also called CP08_H03/Parent VL; CP08_H03/Parental

- binding result [3]: no binding
- binding result [4]: no binding
- binding result [5]: no binding
B2: chimeric antibody VH0/Vκ0 (antibody, IgG4, V domains shown)
VH: EVQLVESGGDLVKPGGSLKLACAASGFIFSSHGMSWVRQTPDKRLEWVATISSGGTYTYYPDSVKGRFTISRDNDKNTLYLQMNSLKSEDTAMYYCARHDFDYDAAWFAYWGQGTLVTVSS
VL: QIVLTQSPALMSASPGVKVTMTCSANSSVSYMYWYRQKPRSSPKPWIYLTSNLASGVPARFSGSGSGTSYSLTISSMEAEDAATYYCQQWSSNPPTFGSGTKLEIK
notes: IgG4 (S241P), kappa; also called VH0/Vκ0 (control); Chimeric VH0/Vκ0
